Measurements as given in the nanobody polyreactivity screen of Harvey et al. (2022).

Test: yeast display, Sf9 membrane polyspecificity reagent, FACS + sequencing; frameworks hold sequencing errors
Method in brief: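 Galactose induction of a Saccharomyces cerevisiae BJ5465 synthetic nanobody display library ran 36–48 hours. The cells were then stained for 1 hour at 4 °C with 10% biotinylated, detergent-solubilized Sf9 membrane reagent, pulled down on streptavidin microbeads and FACS-sorted into low and high (top ~1%) gates on expression and reagent-binding fluorescence. Labels for polyreactivity follow the gate of origin.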

Row | Sequence | polyreactivity (PSR sort gate)
1 | QVQLVESGGGLVQAGGSLRLSCAASGGIFYHNAMGWYRQAPGKERELVAAISGRGGRTYYADSVKGRFTISRDNAKNTVYLQMNSLKPEDTAVYYCAAGGQARHDYWGQGTQVTVSS | low polyreactivity
2 | QVQLVESGGGLVQAGGSLRLSCAASGGIFYINAMGWYRQAPGKERELVAAISRDGTITYYADSVKGRFTISRDNAKNTVYLQMNSLKPEDTAVYYCAADASIQSWYSIYDYWGQGTQVTVSS | high polyreactivity
3 | QVQLVESGGGLVQAGGSLRLSCAASGGIFYLYAMGWYRQAPGKERELVASINWRSASTYYADSVKGRFTISRDNAKNTVYFQMNSLKPEDTAVYYCNVQWYGGYDYWGQGTQVTVSS | low polyreactivity
4 | QVQLVESGGGLVQAGGSLRLSCAASGGIFYNYAMGWYIQAPGKERELVAAITYSGVRTNYADSVKGRFTISRDNAKNTVYLQMNSLKPEDTAVYYCNAAVVYVKMDYWGQGTQVTVSS | low polyreactivity
5 | QVQLVESGGGLVQAGGSLRLSCAASGGIFYPNAMGWYRQAPAKERELVAANTSGGSTSYADSVKGRFTISRDNAKDTVYLQMNSLKPEDTAVYYCAASTTAYAYVNYGSWGQGTQVTVSS | low polyreactivity
6 | QVQLVESGGGLVQAGGSLRLSCAASGGIFYSNAMGWYRPAPGKERELVAAISSSGGSTYYADSVKGRFTISRDNAKNTVYLQMNSLKPEDTAVYYCAARPTVRPVVRFGYWGQGTQVTVSS | high polyreactivity
7 | QVQLVESGGGLVQAGGSLRLSCAASGGIFYSNGMGWYRQAPGKERELVAAITGGDITDYADSVKGRFTISRDNAKNTVYLQMNSLKPEDTAVYFCAVESYPPDYGPRFGSWGQGTQVTVSS | low polyreactivity
8 | QVQLVESGGGLVQAGGSLRLSCAASGGIFYTNAMGWYRQAPGKERELVAAISRSGGSTYYADSVKGRFTISRDNAKNTVYLQMNSLKPEDTAVYYCAARVYVYGYSYDYWGQGTQVTVSS | high polyreactivity
9 | QVQLVESGGGLVQAGGSLRLSCAASGGIFYYYAMGWYRQAPGKERELVATISNGGSTYYADSVKGRFTISRDNAKNTVYLQMNSLKPEDTAVYYCAADSSSDQYRYFPFDHWGQGTQVTVSS | high polyreactivity
10 | QVQLVESGGGLVQAGGSLRLSCAASGGIFYYYTMGWYRQAPGKERELVAAINWSGGSTYYADSVKGRFTISRDNAKNTVYLQMNSLKPEDTAVYYCNAVYRHPVTYGYWGQGTQVTVSS | high polyreactivity
11 | QVQLVESGGGLVQAGGSLRLSCAASGGIITYYDMGWYSQAPGKDREFVAAINVSGTRTYYADSVKGRFTISRDNAKNTVYLEMNSLKPEDTAVYYGATRYRVGFFSWYDYWGQGTQVTVSS | high polyreactivity
12 | QVQLVESGGGLVQAGGSLRLSCAASGGILDTYAMGWYRQAPGKERELVAAITSGGNTNYADSVKGRFTISRDNAKNTVYLQMNSLKPEDSAVYYCNVVTWYYVFRPWEYEYWGQGTQVTVSS | low polyreactivity
13 | QVQLVESGGGLVQAGGSLRLSCAASGGILDTYAMGWYRQAPGKERELVAAITSGGNTNYADSVKGRFTISRDNAKNTVYLQMNSLKPEDTAVYYCNVVTWYYVFRPWEYDYWGQGTQVTVSS | low polyreactivity
14 | QVQLVESGGGLVQAGGSLRLSCAASGGILETNAMGWYRQAPGKERELVAAIDFSAGSTYYADSVKGRFTISRDNAKNTVYLQMNSLKPEDTAVYYCATRLGVLYDYWGQGTQVTVSS | low polyreactivity
15 | QVQLVESGGGLVQAGGSLRLSCAASGGILHSYAMGWYRQAPGKERELVAAISGSGGSTYYADSVKGRFTISRDNAKNTVYLQMNSLKPEDTAVYYCNAVHHYPEHIGGGYWGQGTQVTVSS | low polyreactivity
16 | QVQLVESGGGLVQAGGSLRLSCAASGGILSDYAMGWYRQAPGKERELVAAITISGGRTNYADSVKGRFTFSRDNAKNTVYLQMNSLTPEDTAVYYCYKLPWEYDYWGQGTQVTVSS | low polyreactivity
17 | QVQLVESGGGLVQAGGSLRLSCAASGGIVRLYGMGWDRQAPGKEMEFVAAISSGGGRTYYADSVKGRFTLSRDNAKNTVYLQMNSLKPEDTAVYYCNAELNWYYYIHLDYWGQGTQVTVSS | low polyreactivity
18 | QVQLVESGGGLVQAGGSLRLSCAASGGNFESNAMGWYRQAHGKERELVAAISWSGGTTYYADSVKGRFTISRDNAKNTDFLQMNSLKPEDTAVYYCAKVPFSYRSFGYWGQGTQVTVSS | low polyreactivity
19 | QVQLVESGGGLVQAGGSLRLSCAASGGNFKRYAMGWYRQAPGKERELVAAISGRGGSTYYADSVKGRFTISRDYAKNTVYLQMNSLKPEDTAVYYCDAYWRYRTDMDYWGQGTQVTVSS | high polyreactivity
20 | QVQLVESGGGLVQAGGSLRLSCAASGGNFRLYAMGWYSPAPGKERELVAAINGGGSTNYADSVKGRFTISRDNAKNTVYLQMNSLKPEDTAVYYCNAVQYYRFQVYEYDYWGQGTQVTVSS | high polyreactivity
21 | QVQLVESGGGLVQAGGSLRLSCAASGGNFRYYAMGWYRQAPGKERELVAAITRGGRTSYADSVKGRFTISRDNAKNTVYLQMNSLKPEDSAVYYCNAKRPYQEHNSYGYWGQGSQVTVSS | high polyreactivity
22 | QVQLVESGGGLVQAGGSLRLSCAASGGNFSLNAMGWYRQAPGKERELVATISWSGTSTHYADSVKGRFTISRDNAKNTVYLQMNSLKPEDTAVYYCNTRLYGRDYSWYDYWGQGTQVTVSS | high polyreactivity

Row | Sequence | polyreactivity (PSR sort gate)
23 | QVQLVESGGGLVQAGGSLRLSCAASGGNFYYYVMGWYRQAPGKERELVAAITWSGGSTSYADSVKGRFTISRDNAKNTVYLQMNSLKPEDTAVYYCNADSTTQDYDYWGQGTQVSVSS | low polyreactivity
24 | QVQLVESGGGLVQAGGSLRLSCAASGGTCSKYAMGWYRQARGKEREFVAAITVSGGGTYYADSVKGRFTISRDNAKNTVYLQMNSLKTEDTAVYYCAADLAWTASDYWGQGTQVTLSS | low polyreactivity
25 | QVQLVESGGGLVQAGGSLRLSCAASGGTFAEYVMGRYRQAPGKERELVAAIDWSGGSTYYADSVKGRFTISRDNAKNTVYFQMNSLKPEDTALYYCAKGPGYGFYKLMSYDSWGQGTQVTVSS | low polyreactivity
26 | QVQLVESGGGLVQAGGSLRLSCAASGGTFAGYAMGWYRLAPGKERELVAAISWSSGRTYYADSVKGRFTISRDNAKNTVYLQMNSLKPEDTAVYYCNVLRYRGYDYWGQGTQVTVSS | high polyreactivity
27 | QVQLVESGGGLVQAGGSLRLSCAASGGTFAGYAMGWYRQAPGKERELVAAIRWSGGRTYYADSVKGRFTISRDNAKNSVYLQMNSLKPEDTAVYYCAANGHGRVYFEMDYWGQGTQVTVSS | high polyreactivity
28 | QVQLVESGGGLVQAGGSLRLSCAASGGTFARNTMGWYRQAPGKERELVAAITRGGSSTYYADSVKGRFTISRDNAKNTVYLQMNSLKPEDTAVYYCNKSLRWRYPYYGTTGRYDYWGQGTQVTVSS | high polyreactivity
29 | QVQLVESGGGLVQAGGSLRLSCAASGGTFAVNVMGWYRQAPGKERELVAAITSNGGSTYYADSVKGRFTISRDNAKNTVYLQMNSLTPEDTAVYYCAAEGSGWYTGHYYYWGQGTQVTVSS | low polyreactivity
30 | QVQLVESGGGLVQAGGSLRLSCAASGGTFAYYTMGWYRQAPGKERELVAAISSGGRTNYADSVKGRFTISRDNAKNTVYLQMNSLKPEDTAVYYCAAESPLVYYSYPAYYKYYEYEYWGQGTQVTVSS | low polyreactivity
31 | QVQLVESGGGLVQAGGSLRLSCAASGGTFDNYAMGWYRQAHGKERELVAAISWSGDNTYYADSVKGRFTISRDNAKNTVYLQMNSLKPEVTAVYYCAAVYFWYSYDEGYTAYDYWGQGTQVTVSS | low polyreactivity
32 | QVQLVESGGGLVQAGGSLRLSCAASGGTFDVYAMGWYRQAPGKERELVAAISIGGSTYYADSVKGRFTISRDNAKNTVSLQMNSLKPEDTAVYYCAADVNSRYSWRRWYAYDYWGQGTQVTVSS | high polyreactivity
33 | QVQLVESGGGLVQAGGSLRLSCAASGGTFENYPMGWYRQAPGKERELVAAISSGGSTNYADSVKGRFTISRDNAKNTVYLQMNSLKPEDTAVYYCARYRVWGSNGHKLFHYDYWGQGTQVTVSS | low polyreactivity
34 | QVQLVESGGGLVQAGGSLRLSCAASGGTFFVYMGGYRQAPGNERELVADISGSGGGTYYADSVKGRFTISRDNAKNTVYLQMNSLKPEDTAVYYCATDVPTGIIRMYWGQGTQVTVSS | low polyreactivity
35 | QVQLVESGGGLVQAGGSLRLSCAASGGTFGRYAMGWYRQAPGKERELVAAITWRVGSTYADSVKGRFTISRDNAKNTVYLQMNSLKPEDTAVYYCAARRRAPGTKYYYWGQGTQVTVSS | low polyreactivity
36 | QVQLVESGGGLVQAGGSLRLSCAASGGTFGSNAMGWYRQAPGKERELLAAISFSDGITYYADSVKGRFTISRDNAKNTVYLQMNSLKPEDSAVYYCAAELGTSRGGDTMEYWGQGTKVTVSS | high polyreactivity
37 | QVQLVESGGGLVQAGGSLRLSCAASGGTFGVYTMGWYRQAPGKERELVAAISWSGGSTYYADSVKGRFTISRDNAKNTVYLQMNSLKPEDTAVYYCAARLKYGRIRVDHWGQGTQVTVSS | high polyreactivity
38 | QVQLVESGGGLVQAGGSLRLSCAASGGTFIMYAMGWYRQAPGKERELVASITWSGGRTYYADSVKGRFTISRDNSKNTVYLQMNSLKPEDTAVYYCNTPPSYIMDYWGQGTQVTVSS | low polyreactivity
39 | QVQLVESGGGLVQAGGSLRLSCAASGGTFIRYAMGWYRQAPGKEREFVAAISASGGSTYYADSVKGRFTISRDNAKNTVYLQMNSLKPEDTAVYYCAARRTNLPVKFYYWGQGTQVTVSS | high polyreactivity
40 | QVQLVESGGGLVQAGGSLRLSCAASGGTFKTNAMGWYRQAPGKERELVAAITGSGTSTYYADSVKGRFTISRDNAKYTVYLQMNSLKPEDTAVYYCAADKLYQPGIGDDYWGQGTQVTVSS | low polyreactivity
41 | QVQLVESGGGLVQAGGSLRLSCAASGGTFLFYGMGWYRQAPGKERELVAVITWSGGSTYYADSVKGRFTISRDNAKNTVYLQMNSLKPEDTAVYYCNAANTGSPDYQSIGYNFNYWGQGTQVTVSS | low polyreactivity
42 | QVQLVESGGGLVQAGGSLRLSCAASGGTFLGNAMGWYRQAPGKERELVADITSGGSTNYADSVKGRFTITRDNAKNTVYLQMNSLKPEDTAVYYCNARWWFQLYYYSTFAGYNYWGQGTQVTVSS | low polyreactivity
43 | QVQLVESGGGLVQAGGSLRLSCAASGGTFLYYAMGWYRQAPGKERELVAAISSSTGSTNYADSVKGRFTISRDNAKNTVYLQMNSLKPEDTAVYYCAAAPHRHSWYYTRHPYFCMDYWGQGTQVTVSS | low polyreactivity
